Assay results published in IntAct's records for PubMed 20224574.

B1: Nibrin (Homo sapiens), O60934 (parent)
chain: MWKLLPAAGPAGGEPYRLLTGVEYVVGRKNCAILIENDQSISRNHAVLTANFSVTNLSQTDEIPVLTLKDNSKYGTFVNEEKMQNGFSRTLKSGDGITFGVFGSKFRIEYEPLVACSSCLDVSGKTALNQAILQLGGFTVNNWTEECTHLVMVSVKVTIKTICALICGRPIVKPEYFTEFLKAVESKKQPPQIESFYPPLDEPSIGSKNVDLSGRQERKQIFKGKTFIFLNAKQHKKLSSAVVFGGGEARLITEENEEEHNFFLAPGTCVVDTGITNSQTLIPDCQKKWIQSIMDMLQRQGLRPIPEAEIGLAVIFMTTKNYCDPQGHPSTGLKTTTPGPSLSQGVSVDEKLMPSAPVNTTTYVADTESEQADTWDLSERPKEIKVSKMEQKFRMLSQDAPTVKESCKTSSNNNSMVSNTLAKMRIPNYQLSPTKLPSINKSKDRASQQQQTNSIRNYFQPSTKKRERDEENQEMSSCKSARIETSCSLLEQTQPATPSLWKNKEQHLSENEPVDTNSDNNLFTDTDLKSIVKNSASKSHAAEKLRSNKKREMDDVAIEDEVLEQLFKDTKPELEIDVKVQKQEEDVNVRKRPRMDIETNDTFSDEAVPESSKISQENEIGKKRELKEDSLWSAKEISNNDKLQDDSEMLPKKLLLTEFRSLVIKNSTSRNPSGINDDYGQLKNFKKFKKVTYPGAGKLPHIIGGSDLIAHHARKNTELEEWLRQEMEVQNQHAKEESLADDLFRYNPYLKRRR

What was measured:
Conditions in all cases: with mdc1_human MDC1, Q14676
[1] = variants of: B1
[2] = variants of: B1; remark: listed apart in the source
[3] = variants of: B1; remark: listed apart in the source

Chain of mdc1_human MDC1, Q14676 (Q14676 whole entry): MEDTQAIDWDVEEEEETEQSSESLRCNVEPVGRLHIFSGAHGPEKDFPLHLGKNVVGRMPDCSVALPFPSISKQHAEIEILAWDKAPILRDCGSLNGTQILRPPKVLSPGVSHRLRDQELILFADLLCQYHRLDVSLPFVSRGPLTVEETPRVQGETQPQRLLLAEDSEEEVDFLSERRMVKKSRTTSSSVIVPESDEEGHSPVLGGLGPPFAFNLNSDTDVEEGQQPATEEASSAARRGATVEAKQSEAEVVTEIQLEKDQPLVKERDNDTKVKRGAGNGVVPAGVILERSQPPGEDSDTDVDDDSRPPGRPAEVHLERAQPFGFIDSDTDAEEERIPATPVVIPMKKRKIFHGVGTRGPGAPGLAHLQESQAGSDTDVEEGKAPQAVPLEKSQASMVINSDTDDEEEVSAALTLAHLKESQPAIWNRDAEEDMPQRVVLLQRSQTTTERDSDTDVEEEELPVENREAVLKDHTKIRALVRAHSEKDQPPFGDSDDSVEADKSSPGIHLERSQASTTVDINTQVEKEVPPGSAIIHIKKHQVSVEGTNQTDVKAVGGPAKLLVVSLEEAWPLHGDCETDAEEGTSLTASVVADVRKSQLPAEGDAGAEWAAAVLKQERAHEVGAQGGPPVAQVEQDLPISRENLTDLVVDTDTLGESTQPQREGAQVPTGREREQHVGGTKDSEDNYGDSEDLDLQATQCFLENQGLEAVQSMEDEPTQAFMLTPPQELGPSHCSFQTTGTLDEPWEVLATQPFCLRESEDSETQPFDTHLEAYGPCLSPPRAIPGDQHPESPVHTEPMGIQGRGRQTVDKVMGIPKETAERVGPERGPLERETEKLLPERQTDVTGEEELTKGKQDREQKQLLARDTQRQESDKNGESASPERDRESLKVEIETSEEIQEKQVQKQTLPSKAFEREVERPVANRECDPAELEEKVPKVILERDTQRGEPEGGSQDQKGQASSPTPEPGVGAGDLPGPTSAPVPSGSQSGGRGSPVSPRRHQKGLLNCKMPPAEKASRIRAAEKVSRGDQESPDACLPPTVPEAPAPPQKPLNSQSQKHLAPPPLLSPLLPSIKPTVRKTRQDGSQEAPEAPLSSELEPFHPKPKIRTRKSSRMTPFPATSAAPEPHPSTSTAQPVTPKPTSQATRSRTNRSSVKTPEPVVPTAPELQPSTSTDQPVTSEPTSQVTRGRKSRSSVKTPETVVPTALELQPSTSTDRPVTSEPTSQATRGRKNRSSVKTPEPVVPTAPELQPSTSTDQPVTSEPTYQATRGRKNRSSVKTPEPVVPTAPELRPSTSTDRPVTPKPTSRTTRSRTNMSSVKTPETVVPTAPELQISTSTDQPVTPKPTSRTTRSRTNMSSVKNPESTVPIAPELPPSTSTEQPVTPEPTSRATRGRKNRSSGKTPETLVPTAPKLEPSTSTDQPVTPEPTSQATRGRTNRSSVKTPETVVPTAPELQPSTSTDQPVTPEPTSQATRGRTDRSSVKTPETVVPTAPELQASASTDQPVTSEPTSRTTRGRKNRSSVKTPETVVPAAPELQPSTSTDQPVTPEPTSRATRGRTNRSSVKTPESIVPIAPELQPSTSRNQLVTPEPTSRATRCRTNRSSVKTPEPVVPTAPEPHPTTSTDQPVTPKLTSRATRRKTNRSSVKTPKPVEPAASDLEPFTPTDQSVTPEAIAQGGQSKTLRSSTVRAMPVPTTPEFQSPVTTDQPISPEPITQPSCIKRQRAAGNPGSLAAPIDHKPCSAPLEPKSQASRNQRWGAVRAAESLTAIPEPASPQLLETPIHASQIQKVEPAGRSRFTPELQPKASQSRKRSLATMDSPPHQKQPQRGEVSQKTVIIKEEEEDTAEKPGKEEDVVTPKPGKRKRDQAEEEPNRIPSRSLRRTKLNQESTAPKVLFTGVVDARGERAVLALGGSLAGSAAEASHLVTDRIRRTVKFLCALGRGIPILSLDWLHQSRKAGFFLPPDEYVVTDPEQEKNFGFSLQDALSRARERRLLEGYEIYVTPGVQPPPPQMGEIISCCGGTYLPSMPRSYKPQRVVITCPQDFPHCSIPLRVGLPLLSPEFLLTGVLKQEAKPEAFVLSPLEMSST

effect of a mutation on the interaction [1] | effect of a mutation on the interaction [2] | effect of a mutation on the interaction [3] | Variant
decreasing interaction | disrupting interaction |  | K160M
 | disrupting interaction | decreasing interaction | R28A
